The text below walks through data of the nanobody polyreactivity screen of Harvey et al. (2022).

A short description of this data set: yeast display, Sf9 membrane polyspecificity reagent, FACS + sequencing; frameworks hold sequencing errors. The essentials:
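Nanobodies came from a synthetic yeast display library in Saccharomyces cerevisiae BJ5465, induced with galactose for 36–48 hours and stained for 1 hour at 4 °C with 10% biotinylated, detergent-solubilized Sf9 membrane reagent. Cells were enriched on streptavidin microbeads and then FACS-sorted, with low and high (top ~1%) gates set on anti-HA fluorescence for expression and streptavidin fluorescence for reagent binding. Each polyreactivity label reflects the gate a clone came from. Genes were amplified by colony PCR, sequenced by MiSeq 2 × 250 and filtered by CDR length.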
Regarding “QVQLVESGGGLVQAGGSLRYSCAASGSTSAWYAMGWYRQAPGKERELVAAITESGGDTYYADSVKGRFTISRDNAKNTVYLQMNSLKPEDTAVYYCNARGSARKSVPYPLEYWGQGTQVTVSS”, the “polyreactivity (PSR sort gate)” value is recorded as “high polyreactivity”.

On to “QVQLVESGGGLVQAGGSLSISCAASGLSFSVNAMGWYRPAPGKEREFVAAISSSGGRTYYADSVKGRFTISRDHAKNTVYLQMNSLKPEYTAGYYCATAQGSRVDYWGQGTQVTLSS”, for which the “polyreactivity (PSR sort gate)” value is recorded as “high polyreactivity”. For the sequence “QVQLVESGGGLVQAGGSLSLICAASGFIYYTMGWYRQAPGKEWELVAAISRSGGSTYYADSVKGRFTISRDNAKNTVYLQMNSLKPEDTAVYYCAARRPYRDGYDYWGQGTQVTVSS”, the “polyreactivity (PSR sort gate)” value is given as “high polyreactivity”. The entry for “QVQLVESGGGLVQAGGSLSLICAASGSTFSQYFMGLYRQAPGKDRELVAGISSRGTSTYYADSVKGRFTISRDNAQNTFYLQMNSLKPEDTAVFYCNRGKLYNTYDYWGQGTQVNVSS” is “low polyreactivity”; for “QVQLVESGGGLVQAGGSLSLICAASGSTILYNTMGWYRQAPGKERELVATITSRGDRTYYADSVKGRFTISRDNAKNTVYLQMNSLKPDDTAVYYCNAYGGNYPQSYRYYYWGQGTQVTVSS” it is “low polyreactivity”. With “QVQLVESGGGLVQAGGSLSLICAAYGSTLGVYAMGWYIQAPGKERELVAAISSGGSTTYADSVKGRFTISRDNAKNTVYLQMNSLKPEDTAVYYCAADRYEGYVTWYWWGAYNYDYWGQGTQVTVSS”, the “polyreactivity (PSR sort gate)” value is reported as “high polyreactivity”.

For the sequence “QVQLVESGGGLVQAGGSLSLICADSGSSFYGYAMGWYRQAPGKERELVAAITSSGGSTYYADSVKGRFTISRDNAKNTVYLQMNSLKPEDTAVYYCAARGSLGGWGLRYYWGQGTQVTVSS”, the “polyreactivity (PSR sort gate)” value is on record as “high polyreactivity”. The same measure for “QVQLVESGGGLVQAGGSLSLMCAASGRTLRSYAMGWYRQAPGKEMEFVASISRSGGSTYYADSVKGRFTISRDNAKNTVYLQMNSLKPEDTAVYYCAAGVRYPYRYYYWGQGTQVTVSS”: “high polyreactivity”. Consider “QVQLVESGGGLVQAGGSLSLRCASYGSISFINAMGWYRQAPGKEMELVARITWSGGTTYYADSVKGRFTISRDNAKNTVYLQMNSLKPEDTAVYYCAAYIWAPLEGYEYDYWGQGTQVTVSS”, for which the “polyreactivity (PSR sort gate)” value is listed as “high polyreactivity”.

Regarding “QVQLVESGGGLVQAGGSLSLSCAASGFIFHYYAMAGYRQAPGKERELVAAISKTVGSTYYADSVKGRFTISRDNAKNTVYLQMNSRKPEDTAVYYCAVGYSRRNTPYDYWGQGTQVTVSS”, the “polyreactivity (PSR sort gate)” value is given as “high polyreactivity”. For the sequence “QVQLVESGGGLVQAGGSLSLSCAASGFIFNHYAMRWYRQAPGTETEFVAAISLSGGSTYYAVSVKGRFTISRDNAKKTVYLQRNSLKPEDTAVYYCAASYNGLWHGDYDYWGHGTQVTVSS”, the “polyreactivity (PSR sort gate)” value is recorded as “low polyreactivity”. The same measure for “QVQLVESGGGLVQAGGSLSLSCAASGFIFRGNGMGWYRQAPGKERELVAAIDSTDSTNYADSVKGRFTISRDNAKNTVYLQMNSLKPEDTAVYYCAAGVSWYGPYDYLWFYAFDYWGQGTQVTVSS”: “low polyreactivity”; for “QVQLVESGGGLVQAGGSLSLSCAASGFIITRNAMGWYRQAPGKEWEFVARISRSSGSTYYADSVKGRFTISRDNAKITVYLKMKSLTPDDTAVYYCNTRVAGIYGFGSYDDWGQGTQVTVSS”: “high polyreactivity”; for “QVQLVESGGGLVQAGGSLSLSCAASGFTFFYNAMGWYRQAPGKERELVASITVSTSGTDYADSVKGRFTISLDNAKNTVYLQMNSLKPEDTAVYYCATDQVLVYSDLQDTAYYWGQGTQVTVSS”: “low polyreactivity”. In the case of “QVQLVESGGGLVQAGGSLSLSCAASGFTFTRYVMGWYRQAPGKERELVAAISINGGRTYYADSVKGSFTNSRDNAKNTVYLQMNSLKPEDTAVYYWAAYKTYGSKYVFVDPGEYYYWGQGTQVTVSS”, the “polyreactivity (PSR sort gate)” value is “high polyreactivity”. Turning to “QVQLVESGGGLVQAGGSLSLSCAASGITFVIYVMGWYRQAPGKERELVAAISWIGGSTYYADSVKGRFTISRDYAKNTVYLQMNSLKPEDTAVYYCATDYVVVVSTGYDYWGQGTQVTVSS”, the “polyreactivity (PSR sort gate)” value was “low polyreactivity”. The same measure for “QVQLVESGGGLVQAGGSLSLSCAASGITLYRYVMGWYRQAPWKERELVADNTGRGTSTYYADSVKGRFTISRDNAKNTVYFQLNSLKPEDTAVYYCNAEYTKTGALVIPYTYYYAEDYWGQATQVTVSS”: “low polyreactivity”; for “QVQLVESGGGLVQAGGSLSLSCAASGLTFDTNAMGWYRQAPGKERELVAAITDSGDSTYYADSVKGRFTISRDNEKNTVYLQMNSLKPEDTAVYYCAARRSNLAWGRRRMYYWGQGTQVTVSS”: “high polyreactivity”; for “QVQLVESGGGLVQAGGSLSLSCAASGNTFYGYAMGWYRQAPGKERELVASITLSGDSTYYADSVKGRFTISRDNAKNTVYLQMNSLKPEDTAVFDCAGVYTYPLGYYHYTYDYWGQGTQVTVSS”: “low polyreactivity”. The same measure for “QVQLVESGGGLVQAGGSLSLSCAASGRIFSNYAMGWYRQAPGKERELVADISSRGVSTYYADSVKGRFTISRDNAKNPGYLQMKSLKPEDTAVYYCAARGYQRQYYYWGQGTQVTVSS”: “high polyreactivity”; for “QVQLVESGGGLVQAGGSLSLSCAASGRTFIFYAMGWYRQAPGKERELVAAISSSGSGTYYADSVKGRFTISRDNAKNTVYLQMNSLKPEDTAVYYCAADVVNSRRRPKYGYWGQGTQVTVSS”: “low polyreactivity”; for “QVQLVESGGGLVQAGGSLSLSCAASGRTFVPYAMGWDRQAPGKERELVAAISRSGSSTYYADSVKGRFTISRDNAKNTVYLQMNSLKPEDTAVYYCAADPVYYYIGDFNYWGQGTQVTVSS”: “high polyreactivity”.

For the sequence “QVQLVESGGGLVQAGGSLSLSCAASGRTFWVYAMGWYRQAPGKERELVAAIRRGGITNYADSVKGRFTNSRDNAKNTVYLQMNCLKPEDTALYYCDTDKYGYLTRYYYWGQGTQVTVSS”, the “polyreactivity (PSR sort gate)” value is on record as “low polyreactivity”. Consider “QVQLVESGGGLVQAGGSLSLSCAASGRTFYVYAMGWYIQAPGKERELVATISRGGSTTYADSVKGLFTISRDNAKNTVYLQMNSLKPEDTAVYYCATELLGGRRTVAYFWGQGSQVTVSS”, for which the “polyreactivity (PSR sort gate)” value is reported as “low polyreactivity”.

Consider “QVQLVESGGGLVQAGGSLSLSCAASGRTFYYYAMGWYRQAPGKERELVAAITSRGTSTYYADSVKGRFTISRDNAKNTVYLQMNSLKPEDTAVYYCAAGFISYYGNCYDYWGQGTQVTVSS”, for which the “polyreactivity (PSR sort gate)” value is “high polyreactivity”. In the case of “QVQLVESGGGLVQAGGSLSLSCAASGRTIIRNAMGWYRQAPGKERELVAAINSGGITNYADSVKGRFTISRDNAKNTVYLKMNSLKPEDTAVYYCNARGSYPPYRSYGYWGQGTQVTVSS”, the “polyreactivity (PSR sort gate)” value is listed as “low polyreactivity”.

Consider “QVQLVESGGGLVQAGGSLSLSCAASGRTLYQYAMGWSRQAPGKERELVAAITTSGGSTYYADSVKGRFTISRDNAKNTVYLQMNSLKPEDTAVYYCAAPYTGYRERGYYKSDYWGQGTQVTESS”, for which the “polyreactivity (PSR sort gate)” value is given as “low polyreactivity”. The same measure for “QVQLVESGGGLVQAGGSLSLSCAASGSIIPDYAMGWYRQAPGKERELVAAITWRDDSTYYADSVKGRFTISRDNAKNTVYLQMNSLKPEDTAVYYCNASALDPLYAKDDYWGQGTQVTVSS”: “low polyreactivity”; for “QVQLVESGGGLVQAGGSLSLSCAASGSILAVYTMGWYRQAPGTVRELVAAITVSSGRTYYADSVKGRFTISRDNAKNTVYLQMNSLKPEDTSVYYCAALYWRSKLRPYEYWGQGTQVTVSS”: “high polyreactivity”; for “QVQLVESGGGLVQAGGSLSLSCAASGSPFLYYTMGWYRQAPGKERELVATISRDGSTNYADSVKGRFTISRDNAKNSVYLQMNSLKPEDTAVYYCAAARDSIGYGQYDYWGQGTQVTVSS”: “low polyreactivity”. Consider “QVQLVESGGGLVQAGGSLSLSCAASGSTFDRNAMGWYRQAPGKERELVAGISFSGGSTYYADSVKGRFTISRDNAKNTVYLQMNSLKPEDTAVYYCAASTYQPGAVPFDYWGQGTQVTVSS”, for which the “polyreactivity (PSR sort gate)” value is recorded as “low polyreactivity”. In the case of “QVQLVESGGGLVQAGGSLSLSCAASGSTFGRYVMGWDRQAPGTERELVAAISYSGGRSYYADSVKGRFTMSRDNAKNTVYLQMNSLKPEDTAVYYCNAYGIDTGDYWGQGTQVTVSS”, the “polyreactivity (PSR sort gate)” value was “high polyreactivity”. With “QVQLVESGGGLVQAGGSLSLSCAASGSTFVENAMGWYRPAPGKERELVAGISIGGITYYADSVKGRFTISRDNAKNTVYLQMNSLKPEDTAVYYCGKRHKRTRNKYYYWGQGTQVNVSS”, the “polyreactivity (PSR sort gate)” value is on record as “high polyreactivity”. As for “QVQLVESGGGLVQAGGSLSLSCAASGSTFVIYAMGWYRQAPGKERELVASIRGRTGSTYNADSVKGRFTISRDNAKNTVYLQMNSLKPEDTAVYYCAAKPGYKSKMDYWGQGTQVSVSS”, the “polyreactivity (PSR sort gate)” value is listed as “high polyreactivity”. The same measure for “QVQLVESGGGLVQAGGSLSLSCAASGSTFVWYAMGWYRQAPGTERELVATITYGGGSTNYADSVKGRFTISRDNAKNTVYLQMNSLKPEDTAVYYCNADTYFESGYWGQGTLVTVSS”: “low polyreactivity”; for “QVQLVESGGGLVQAGGSLSLSCAASGSTLRQYAMGWYRQAPGKERELVAGISYRGGRTYYADSVKVRFTISRDNAKNTVYLQMNSLKPEDTAVYYCNALRHYGDISVDCDDYWGQGTQVTVSS”: “high polyreactivity”; for “QVQLVESGGGLVQAGGSLSLSCAATGRLFSWYTMGWYRQAPGKERELVAAISWSGTSTYYADSVKGRFTISRDNAKNTVYLQMNSLKPEDTAVYYCNKVNPANIRRSYDYWGQGTQVTVSS”: “high polyreactivity”. As to “QVQLVESGGGLVQAGGSLSLSCAATGSIFPPNAMGWYRQAPGKEREFVASITSSGGITNYADSVKGRFTISRDTAKNTVYLQMNSLKTEDTAVYYCAAKYYGGTRFRPYGYWGQGTQVTVSS”, the “polyreactivity (PSR sort gate)” value was “high polyreactivity”.

Turning to “QVQLVESGGGLVQAGGSLSLSCAAYGRTFYRNAMGWYRQAPGKERELVAAISYSGGSTYYADSVKGRFTISRDNAKNTVYLQMNILKPEDTAVYYCNVLYRVDYYRRVDYWGQGTQVSVSS”, the “polyreactivity (PSR sort gate)” value is “high polyreactivity”. The same measure for “QVQLVESGGGLVQAGGSLSLSCADSGRNFAPYAMGWYRQAPGKERELVAAITSGGSTNYADSVKGRFTISRDNAKNTVYLQMNSLKPEDTAVYYCAARQPGTRYPYDYWGQGTQVTVSS”: “high polyreactivity”.
